Patent publication EP0956864A1, “TISSUE FIBROSIS INHIBITOR” (KYOWA HAKKO KOGYO CO., LTD., priority 1996, dated 1998)

Experiments:
[1] = Arginine concentration in blood (plasma) after administration to rats; format: in vivo, SD rats; details: 0.5 ml of 200 µg/ml per rat into penis veniplex; 1, 3, 6, 24 hours and 1 to 14 days
Protocol: 2. Kinetics of PEG modified rat arginase in rat blood
Male SD rats (body weight of 220 to 240 G) were purchased from Nippon SLC and tested after about 1 week breeding. […] After inhalation anesthesia with diethyl ether, each sample was administered to penis veniplex at a dose of 0.5 ml per rat by means of a disposable plastic syringe (Terumo).
To determine the change with the passage of time, the blood was taken from the same individual at 1, 3, 6 and 24 hours or 1, 3, 7, 10 and 14 days. The animals were bled from the tail veins at 0.3 ml per animal by a method that causes a minimum effect on the animals. Each rat was fixed in a retaining trap (Natsume Seisakusho) so that it could move only the tail freely, and a disposable injection needle (Terumo, 23x1" ) was cut at the part connecting to the syringe and inserted into the tail vein. The vein blood dripped from the cut end was received in a sample tube (Eppendorph, volume of 1.5 ml) containing 10 µl of 5% EDTA.2K solution as an anticoagulant. After slightly shaking to confirm the absence of coagulation, the blood was centrifuged at 3,000 rpm for 10 minutes to yield plasma. The plasma sample was freezed and stored at -80°C until analysis. Prior to use, the sample was thawed and centrifuged at 3,000 rpm for 10 minutes to remove insoluble matters. […]

Rat2 cells = assay: Cell growth inhibiting activity in rat fibroblast cell line Rat2 (MTT method); format: cell-based; details: 1.5 µg/ml; compared with LP6 to LP10
Protocol: The assay of growth inhibiting activity using the rat fetal fibroblast as above mentioned has an insufficient sensitivity and needs complicated operations; therefore, a higher sensitive assay of the growth inhibiting activity using rat fibroblasts, Rat2 cells, was established. This assay will be described hereinbelow.
Rat fibroblast cell line Rat2 (ATCC CRL-1764) was cultured in Eagle MEM medium containing 10% bovine serum (Science, 130, 432 (1959)) in the presence of 5% carbon dioxide at 37°C.
The number of Rat2 cells can be measured by any method which can be used for quantitative determination of cell growth. […] Procedures for quantitatively determining the number of cells by the MTT method and assaying the cell growth inhibiting activity of a sample will be described herein. […]
Thereafter, PBS containing 1 to 10 mg/ml, preferably 5 mg/ml, of MTT reagent is added at 1 to 100 µl/well, preferably 10 µl/well, and further incubated for 1 to 8 hours, preferably 4 hours. […] The absorbance of the dissolved formazan dye at 540 nm is measured to thereby quantitatively determine the number of cells. […]
The number of Rat2 cells may be measured by any method which can be used to determine cell growth in a quantitative manner. The number of cells was quantitatively determined by the MTT method herein to measure the cell growth inhibiting activity in the liver perfusates LP6 to LP10. […]

[2] = Arginase activity assay (Garganta and Bond); format: biochemical; details: purified preparation
Protocol: The elution of protein was monitored by measuring absorbance at 280 nm. Effluents were collected by a fraction collector and each fraction was estimated according to the method of measuring arginase activity as reported by Garganta and Bond: Analytical Biochemistry, 154, 388 (1986).
The SP-Sepharose human arginase fraction contained 1360 mg of proteins and the purity of human arginase was 90% or higher. […] The amount of proteins herein means the value calculated as bovine serum albumin using BIO-RAD protein assay kit.

B1: PEG modified rat arginase: recombinant rat arginase modified with methoxy polyethylene glycol propionic acid N-hydroxysuccinimide ester, average molecular weight about 5,000 (conjugate, UniProt P07824 1-323, looked up)
Arginase-1: MSSKPKPIEIIGAPFSKGQPRGGVEKGPAALRKAGLVEKLKETEYNVRDHGDLAFVDVPNDSPFQIVKNPRSVGKANEQLAAVVAETQKNGTISVVLGGDHSMAIGSISGHARVHPDLCVIWVDAHTDINTPLTTSSGNLHGQPVAFLLKELKGKFPDVPGFSWVTPCISAKDIVYIGLRDVDPGEHYIIKTLGIKYFSMTEVDKLGIGKVMEETFSYLLGRKKRPIHLSFDVDGLDPVFTPATGTPVVGGLSYREGLYITEEIYKTGLLSGLDIMEVNPTLGKTPEEVTRTVNTAVALTLSCFGTKREGNHKPETDYLKPPK
modifications: methoxy PEG 5000 conjugated
For B1, the “arginine concentration in blood” value [1] was “Sustained inhibiting effects”, the “rat fibroblast Rat-2 growth inhibiting activity” value (Rat2 cells) was “identical with that obtained when 1.25% LP6 to LP10 were added” and the arginase activity [2] was 2358 U/ml.
